We go through two molecules from US20110011742, “METHOD FOR THE PURIFICATION OF BIOLOGICAL MACROMOLECULES” (published 2011).

Data set [1] deals with T1, Sp1 (UniProt P08047 P08047:2-785). In words: probe mixture, gel-separated complex hybridised to microarray; signal 0 at the tag-complementary spot Y-14 (Y-7t also 0); room temperature 30 min. As to conditions: tags: Promega recombinant; label: 5'-Cy3 on YZ-7f (microarray); partially double-stranded, 3' single-strand tag on YZ-7f. How it is done:
(§1) The Sp1 protein was mixed with a group of Cy3 labeled probes (YZ-7, YZ-9 and YZ-11) at room temperature for 30 minutes and then the protein/DNA complex was separated on the polyacrylamide column using the separation method described in Example 1. The collected protein/DNA complex was concentrated, the buffer changed to 5×SSC, 0.1% SDS, and the DNA hybridized to a microarray slide containing oligonucleotide DNA sequences shown in Table 2. Small amounts of YZ-2 and YZ-4 were added (shown in Table 3 and complementary to the sequences of YZ-1 and YZ-3). These sequences, shown in Table 3, serve as a positive control and reference signal. Only the Sp1 and control probes yielded positive signals (see Table 4). […] The microarray results (shown in Table 4) was consistent with the result from the gel shift assay.

Data set [2] has as its target T1, Sp1. Briefly: probe mixture, gel-separated complex hybridised to microarray; signal 0 at Y-11t; room temperature 30 min. As to conditions: tags: Promega recombinant; label: IRDye 700 (gel) or 5'-Cy3 on YZ-11f (microarray); partially double-stranded, 3' single-strand tag on YZ-11f. How it is done: as §1

T1 sequence (P08047 2-785, one chain of several): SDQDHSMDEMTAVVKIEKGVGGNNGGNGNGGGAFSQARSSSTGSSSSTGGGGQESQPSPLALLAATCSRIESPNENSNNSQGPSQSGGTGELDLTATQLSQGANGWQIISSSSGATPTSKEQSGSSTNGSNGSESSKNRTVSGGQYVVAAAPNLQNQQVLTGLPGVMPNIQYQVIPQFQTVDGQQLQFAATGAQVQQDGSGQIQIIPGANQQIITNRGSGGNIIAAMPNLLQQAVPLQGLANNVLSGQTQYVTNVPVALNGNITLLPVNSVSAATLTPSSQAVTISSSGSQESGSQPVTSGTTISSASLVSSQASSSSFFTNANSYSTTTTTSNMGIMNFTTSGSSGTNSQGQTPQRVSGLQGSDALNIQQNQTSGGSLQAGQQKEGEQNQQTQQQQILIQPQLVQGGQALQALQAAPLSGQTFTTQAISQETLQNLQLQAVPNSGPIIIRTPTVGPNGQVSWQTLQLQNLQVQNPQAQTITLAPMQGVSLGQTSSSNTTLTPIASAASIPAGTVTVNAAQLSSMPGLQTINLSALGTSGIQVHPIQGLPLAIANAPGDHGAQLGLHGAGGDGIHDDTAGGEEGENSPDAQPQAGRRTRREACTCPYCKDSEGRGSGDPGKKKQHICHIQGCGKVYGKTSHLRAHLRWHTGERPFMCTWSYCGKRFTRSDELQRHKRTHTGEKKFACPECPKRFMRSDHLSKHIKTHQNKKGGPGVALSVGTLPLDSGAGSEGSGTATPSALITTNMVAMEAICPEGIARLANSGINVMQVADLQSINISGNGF

B1: YZ-7 (NF-kb probe) (dsDNA)
DNA 1: TCCTAGCTTCAGAGGGGACTTTCCGAGAGGACCTGAAGAAATGGTTTTGAATCAT
DNA 2: CCTCTCGGAAAGTCCCCTCTGAAGCTAGGA
As to B1, the binding result in data set [1] is recorded as “no binding”.

B2: YZ-11 (ER-alpha probe) (dsDNA)
DNA 1: CCTGCCAGGTCGCGCTGCCCTCCTTCTACCATGCCTTAGGAGAATTGTTTTGTTT
DNA 2: GGTAGAAGGAGGGCAGCGCGACCTGGCAGG
Consider B2, for which the binding result in data set [2] was “no binding”.
